Measured values taken from publication PMC6393306.
Where two headings read alike, the source gives them in different places.

What was measured:
GEN1 1-527 (dimer) [1] = target: T1, GEN1 1-527 (dimer) (Homo sapiens, UniProt Q17RS7 1-527); test: EMSA
T1 sequence: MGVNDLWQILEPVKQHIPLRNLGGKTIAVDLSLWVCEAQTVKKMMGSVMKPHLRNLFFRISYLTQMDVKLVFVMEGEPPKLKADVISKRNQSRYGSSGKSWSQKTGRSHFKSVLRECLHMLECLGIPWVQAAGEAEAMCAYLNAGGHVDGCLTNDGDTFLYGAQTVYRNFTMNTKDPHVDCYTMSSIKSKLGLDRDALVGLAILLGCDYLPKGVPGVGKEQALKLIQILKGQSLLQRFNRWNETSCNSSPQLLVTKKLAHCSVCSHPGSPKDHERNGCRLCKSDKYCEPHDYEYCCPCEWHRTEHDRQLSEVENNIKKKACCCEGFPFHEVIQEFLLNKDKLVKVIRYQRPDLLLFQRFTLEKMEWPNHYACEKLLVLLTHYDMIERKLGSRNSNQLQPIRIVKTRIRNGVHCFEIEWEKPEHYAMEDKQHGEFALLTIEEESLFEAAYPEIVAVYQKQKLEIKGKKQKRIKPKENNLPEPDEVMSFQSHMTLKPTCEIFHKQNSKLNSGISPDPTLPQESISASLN

GEN1 1-527 (dimer) [2] = target: T1, GEN1 1-527 (dimer); test: EMSA; remark: listed apart in the source

B1: X0 (Cy5, EMSA) (structured_DNA)
DNA 1: ACGCTGCCGAATTCTACCAGTGCCTTGCTAGGACATCTTTGCCCACCTGCAGGTTCACCC
DNA 2: GGGTGAACCTGCAGGTGGGCAAAGATGTCCATCTGTTGTAATCGTCAAGCTTTATGCCGT
DNA 3: ACGGCATAAAGCTTGACGATTACAACAGATCATGGAGCTGTCTAGAGGATCCGACTATCG
DNA 4: CGATAGTCGGATCCTCTAGACAGCTCCATGTAGCAAGGCACTGGTAGAATTCGGCAGCGT
Kd (GEN1 1-527 (dimer) [1]): 23.4 nM | Kd (GEN1 1-527 (dimer) [2]): 6.23 nM
